Measurements as given in IntAct's records for PubMed 36233334.

B1: Cilia- and flagella-associated protein 418 (Homo sapiens), Q96NL8 (parent)
chain: MAEDLDELLDEVESKFCTPDLLRRGMVEQPKGCGGGTHSSDRNQAKAKETLRSTETFKKEDDLDSLINEILEEPNLDKKPSKLKSKSSGNTSVRASIEGLGKSCSPVYLGGSSIPCGIGTNISWRACDHLRCIACDFLVVSYDDYMWDKSCDYLFFRNNMPEFHKLKAKLIKKKGTRAYACQCSWRTIEEVTDLQTDHQLRWVCGKH
partner: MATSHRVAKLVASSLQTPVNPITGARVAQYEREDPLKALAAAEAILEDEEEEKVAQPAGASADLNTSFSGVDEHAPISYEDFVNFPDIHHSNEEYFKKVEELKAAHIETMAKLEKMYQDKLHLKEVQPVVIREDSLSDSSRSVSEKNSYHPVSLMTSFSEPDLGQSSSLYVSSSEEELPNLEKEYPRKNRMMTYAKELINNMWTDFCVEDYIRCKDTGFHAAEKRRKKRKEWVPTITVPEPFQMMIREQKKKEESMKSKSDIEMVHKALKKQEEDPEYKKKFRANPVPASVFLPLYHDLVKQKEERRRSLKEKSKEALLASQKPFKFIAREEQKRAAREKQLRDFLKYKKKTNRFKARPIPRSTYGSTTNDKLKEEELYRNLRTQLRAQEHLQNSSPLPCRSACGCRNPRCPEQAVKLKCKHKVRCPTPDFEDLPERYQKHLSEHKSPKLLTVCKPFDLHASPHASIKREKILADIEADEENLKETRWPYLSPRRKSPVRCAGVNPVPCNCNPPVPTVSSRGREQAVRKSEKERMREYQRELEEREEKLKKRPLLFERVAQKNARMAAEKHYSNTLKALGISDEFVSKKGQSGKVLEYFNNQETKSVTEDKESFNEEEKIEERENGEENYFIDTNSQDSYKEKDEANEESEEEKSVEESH

Variants of: B1
Conditions: with FAM161A

effect of a mutation on the interaction	Variant
with no effect	MAEDLDELLDEVESKFCTPDLLRRGMVEQPKGCGGGTHSSDRNQAKAKETLRSTETFKKEDDLDSLINEILEEPNLDKKPSKLKSKSSGNTSVRASIEGLGKSCSPVYLGGSSIPCGIGTNISWRACDHLRCIACDFLVVSYDDYMWDKSCDYLFFRNNMPEFHKLKAKLIKKKGTWAYACQCSWRTIEEVTDLQTDHQLRWVCGKH [R177W]
with no effect	MAEDLDELLDEVESKFCTPDLLRRGMVEQPKGCGGGTHSSDRNQAKAKETLRSTETFKKEDDLDSLINEILEEPNLDKKPSKLKSKSSGNTSVRASIEGLGKSCSPVYLGGSSIPCGIGTNISWRACDHLRCIACDFLVVSYDDYMWDKSCDYLFFRNNMPEFHKLKAKLIKKKGTRAYACRCSWRTIEEVTDLQTDHQLRWVCGKH [Q182R]
